The first assay deals with human-thrombin (product of Sigma) (human) (UniProt P00734).
Test: not given
hirudin HV-1 registered a Potency of 95.
“peptide (A) Gly-Asp-Phe-Glu-Glu-Ile-Pro-Glu-Tyr-Tyr-Leu-Gln” showed a 50% Inhibition Concentration (clotting assay) of 14700 ng/mL and a Potency of 0.45.
The like results for “peptide (B) Gly-Asp-Phe-Glu-Glu-Ile-Pro-Tyr-Tyr-Tyr-Leu-Gln” were, in that order, 13800 ng/mL and 0.48.
For “peptide (C) Suc-Gly-Asp-Phe-Glu-Pro-Ile-Pro-Glu-Tyr-Tyr-Leu-Gln-OH” the same measures were 3750 ng/mL and 1.76.
Regarding “peptide (I) Suc-Phe-Glu-Pro-Ile-Pro-Glu-Tyr-Tyr-OH”, the 50% Inhibition Concentration (clotting assay) is 20000 ng/mL and the Potency is 0.83.
“peptide (J) Suc-Phe-Glu-Pro-Ile-Pro-Glu-Tyr-Tyr-NH2” displayed a 50% Inhibition Concentration (clotting assay) of 98400 ng/mL and a Potency of 0.07.
Take “peptide (K) Suc-Phe-Glu-Pro-Ile-Pro-Glu-Tyr-Tyr-NH(CH2)2COOH”: the 50% Inhibition Concentration (clotting assay) is 30200 ng/mL and the Potency amounted to 0.21.
The like results for “peptide (L) Suc-Phe-Glu-Pro-Ile-Pro-Glu-Tyr-Tyr-NH(CH2)4COOH” were, in that order, 15600 ng/mL and 0.42.
The like results for “peptide (N) Suc-Phe-Glu-Pro-Ile-Pro-Glu-Tyr-Tyr-NH(CH2)3OH” were, in that order, 103000 ng/mL and 0.06.
For “peptide (O) Suc-Phe-Glu-Pro-Ile-Pro-Glu-Tyr-Tyr-(L)Asu(OMe)OMe” the same measures were 35300 ng/mL and 0.19.
In the case of “peptide (P) Suc-Phe-Glu-Pro-Ile-Pro-Glu-Tyr-Tyr-Leu-ol”, the 50% Inhibition Concentration (clotting assay) was determined as 104000 ng/mL and the Potency was determined as 0.06.
For “peptide (R) Suc-Phe-Glu-Pro-Ile-Pro-Glu-Tyr-Tyr-Leu-NHEt” the same measures were 36100 ng/mL and 0.18.
For “peptide (S) Suc-Phe-Glu-Pro-Ile-Pro-Glu-Tyr-Tyr-Leu-Tau-NH2” the same measures were 99600 ng/mL and 0.07.
The like results for “peptide (U) Suc-Phe-Glu-Pro-Ile-Pro-Glu-Tyr-Tyr-Leu-(D)Asu(OMe)OMe” were, in that order, 47500 ng/mL and 0.14.
Regarding “peptide (V) Suc-Phe-Glu-Pro-Ile-Pro-Glu-Tyr-Tyr-Leu-(L)Asu(OMe)OMe”, the 50% Inhibition Concentration (clotting assay) stood at 30400 ng/mL and the Potency amounted to 0.22.
“peptide (W) Suc-Phe-Glu-Pro-Ile-Pro-Glu-Tyr-Tyr-Leu-(D)Asu(NH2)NH2” registered a 50% Inhibition Concentration (clotting assay) of 35000 ng/mL and a Potency of 0.19.
For “peptide (Y) Suc-Phe-Glu-Pro-Ile-Pro-Glu-Tyr-Tyr-Leu-NHPO(OH)2” the same measures were 153000 ng/mL and 0.04.

The next assay has the same target. The assay is described as follows: chromogenic thrombin inhibition assay, potency column of Table 3 (hirudin HV-1 = 1).
Turning to hirudin HV-1, the Potency was 1.

Source of the values: patent US5767235.
